In patent US20060134709A1:

Assays:
soluble FcγRIIB (human) = soluble FcγRIIB (human) (UniProt P31994); assay: ELISA
[1] = molecular target: soluble monomeric FcγRIIIA-linker-AVITAG (human) (UniProt P08637); assay: ELISA

fold increase vs wt (soluble FcγRIIB (human))	fold increase vs wt [1]	Substance	other results
7.2 x	1.9 x	ch4-4-20 "term is M, P396L" (antibody)	–
6 x	1.5 x	ch4-4-20 A231V, Q386H, V412M (antibody)	–
–	0.5 x	ch4-4-20 A378V, N390I, V422I (antibody)	–
6 x	2.5 x	ch4-4-20 D221Y, M252I, A330G, A339T, T359N, V422I, H433L (antibody)	–
–	3 x	ch4-4-20 D280E, S354F, A431D, L441I (antibody)	–
–	0.5 x	ch4-4-20 D312E, K327N, I378S (antibody)	–
–	–	ch4-4-20 D399E, M428L (antibody)	fold decrease vs wt (soluble FcγRIIB (human)): 0.5 x; fold decrease vs wt [1]: 0.5 x
0.5 x	–	ch4-4-20 D399E, R292L, V185M (antibody)	–
–	0.5 x	ch4-4-20 D401V (antibody)	–
4 x	0.5 x	ch4-4-20 E216D, E345K, S375I (antibody)	–
–	1.5 x	ch4-4-20 E233D, K334E (antibody)	–
4 x	1.25 x	ch4-4-20 E258D, N384K (antibody)	–
4.9 x	1.9 x	ch4-4-20 E258D, P396L (antibody)	–
2.5 x	2 x	ch4-4-20 F241L, E258G (antibody)	–
–	1 x	ch4-4-20 F243L, R255L, E318K (antibody)	–
5.4 x	1.6 x	ch4-4-20 F243L, V305I, A378D, F404S, P396L (antibody)	–
–	0.5 x	ch4-4-20 F275I, K334N, V348M (antibody)	–
3.7 x	2.2 x	ch4-4-20 F275L, Q362H, N384K, P396L (antibody)	–
–	3 x	ch4-4-20 F275Y (antibody)	–
0.75 x	1 x	ch4-4-20 G385E, P247H (antibody)	–
–	0.5 x	ch4-4-20 H224L (antibody)	–
–	1.5 x	ch4-4-20 H268D, E318D (antibody)	–
13.7 x	3.8 x	ch4-4-20 H268D, P396L (antibody)	–
–	0.5 x	ch4-4-20 H310Y, T289A, G337E (antibody)	–
0.5 x	1.5 x	ch4-4-20 I377F (antibody)	–
–	–	ch4-4-20 I377N (antibody)	fold decrease vs wt [1]: 0.5 x

fold increase vs wt (soluble FcγRIIB (human))	fold increase vs wt [1]	Substance	other results
4.6 x	1.9 x	ch4-4-20 K210M, P396L (antibody)	–
8.7 x	2.7 x	ch4-4-20 K210N, K222I, K320M, P396L (antibody)	–
–	3.5 x	ch4-4-20 K218R, G281D, G385R (antibody)	–
–	1 x	ch4-4-20 K222N (antibody)	–
7 x	1 x	ch4-4-20 K222N, T335N, K370E, A378V, T394M (antibody)	–
–	–	ch4-4-20 K246I, Q362H, K370E (antibody)	fold decrease vs wt (soluble FcγRIIB (human)): 0.5 x
4.8 x	1.1 x	ch4-4-20 K246N, Q419R, P396L (antibody)	–
–	1 x	ch4-4-20 K246R, S298N, I377F (antibody)	–
2.5 x	1 x	ch4-4-20 K246T, P396H (antibody)	–
–	1 x	ch4-4-20 K246T, Y319F (antibody)	–
–	1 x	ch4-4-20 K288N, K326N (antibody)	–
6.7 x	1.3 x	ch4-4-20 K290E, V369A, T393A, P396L (antibody)	–
6 x	0.25 x	ch4-4-20 K290T, G371D (antibody)	–
6.1 x	2.8 x	ch4-4-20 K290T, N390I, P396L (antibody)	–
7 x	2.5 x	ch4-4-20 K317N, F423-deleted (antibody)	–
–	1 x	ch4-4-20 K320E, K326E (antibody)	–
–	0.5 x	ch4-4-20 K326E, G385E (antibody)	–
5.9 x	2.9 x	ch4-4-20 K326I, P396L (antibody)	–
9.3 x	4 x	ch4-4-20 K326I, S408N, P396L (antibody)	–
–	1.5 x	ch4-4-20 K326Q, K334E, T359N, T366S (antibody)	–
–	2.5 x	ch4-4-20 K334E (antibody)	–
4.5 x	1.5 x	ch4-4-20 K334E, E380D (antibody)	–
–	1 x	ch4-4-20 K334E, T359N, T366S, Q386R (antibody)	–
–	1 x	ch4-4-20 K334I (antibody)	–
–	0.5 x	ch4-4-20 K334N (antibody)	–
–	3.1 x	ch4-4-20 K334N, P396L (antibody)	–

fold increase vs wt (soluble FcγRIIB (human))	fold increase vs wt [1]	Substance	other results
6.6 x	2 x	ch4-4-20 K370E, P396L (antibody)	–
–	–	ch4-4-20 K414N (antibody)	fold decrease vs wt [1]: 0.25 x
–	2 x	ch4-4-20 L235P, V382M, S304G, V305I, V323I (antibody)	–
–	1.5 x	ch4-4-20 L398V (antibody)	–
0.75 x	–	ch4-4-20 N315I (antibody)	–
–	–	ch4-4-20 P247L, A431V, S442F (antibody)	fold vs wt [1]: 1 x
–	1 x	ch4-4-20 P247L, I377F (antibody)	–
–	1.25 x	ch4-4-20 P247L, L398Q (antibody)	–
–	1.5 x	ch4-4-20 P247L, W313R, E388G (antibody)	–
–	–	ch4-4-20 P291S, K288E, H268L, A141V (antibody)	fold decrease vs wt [1]: 0.5 x
–	1 x	ch4-4-20 P396H (antibody)	–
–	1 x	ch4-4-20 P396L (antibody)	–
–	0.5 x	ch4-4-20 Q347H, A339V (antibody)	–
–	2 x	ch4-4-20 R255Q, K326E (antibody)	–
–	–	ch4-4-20 R301C, M252L, S192T (antibody)	fold decrease vs wt [1]: 0.5 x
–	1 x	ch4-4-20 S219Y (antibody)	–
–	2 x	ch4-4-20 S298N, W381R (antibody)	–
–	0.5 x	ch4-4-20 S383N, N384K, T256N, V262L, K218E, R214I, K205E, F149Y, K133M (antibody)	–
–	1.5 x	ch4-4-20 T256S, V305I, K334E, N390S (antibody)	–
–	0.5 x	ch4-4-20 T335N, K370E, A378V, T394M, S424L (antibody)	–
–	–	ch4-4-20 T335N, P387S, H435Q (antibody)	fold vs wt [1]: 1.25 x
–	0.5 x	ch4-4-20 T394M, V397M (antibody)	–
–	1 x	ch4-4-20 V279L, P395S (antibody)	–
–	1 x	ch4-4-20 V282M (antibody)	–
–	–	ch4-4-20 V284A, F372L (antibody)	fold vs wt [1]: 1 x
–	0.25 x	ch4-4-20 V397M, T411A, S415N (antibody)	–
